Test results: PMC9300119, “Proteins DotY and DotZ modulate the dynamics and localization of the type IVB coupling complex of Legionella pneumophila” (Molecular Microbiology, 2021)

T1: DotL with a Strep-tag at the C-terminus (Legionella pneumophila (strain Lp01), UniProt Q5ZYC6 1-783)
T1 construct: also called DotL_(Strep); DotL_(strep)
T1 sequence: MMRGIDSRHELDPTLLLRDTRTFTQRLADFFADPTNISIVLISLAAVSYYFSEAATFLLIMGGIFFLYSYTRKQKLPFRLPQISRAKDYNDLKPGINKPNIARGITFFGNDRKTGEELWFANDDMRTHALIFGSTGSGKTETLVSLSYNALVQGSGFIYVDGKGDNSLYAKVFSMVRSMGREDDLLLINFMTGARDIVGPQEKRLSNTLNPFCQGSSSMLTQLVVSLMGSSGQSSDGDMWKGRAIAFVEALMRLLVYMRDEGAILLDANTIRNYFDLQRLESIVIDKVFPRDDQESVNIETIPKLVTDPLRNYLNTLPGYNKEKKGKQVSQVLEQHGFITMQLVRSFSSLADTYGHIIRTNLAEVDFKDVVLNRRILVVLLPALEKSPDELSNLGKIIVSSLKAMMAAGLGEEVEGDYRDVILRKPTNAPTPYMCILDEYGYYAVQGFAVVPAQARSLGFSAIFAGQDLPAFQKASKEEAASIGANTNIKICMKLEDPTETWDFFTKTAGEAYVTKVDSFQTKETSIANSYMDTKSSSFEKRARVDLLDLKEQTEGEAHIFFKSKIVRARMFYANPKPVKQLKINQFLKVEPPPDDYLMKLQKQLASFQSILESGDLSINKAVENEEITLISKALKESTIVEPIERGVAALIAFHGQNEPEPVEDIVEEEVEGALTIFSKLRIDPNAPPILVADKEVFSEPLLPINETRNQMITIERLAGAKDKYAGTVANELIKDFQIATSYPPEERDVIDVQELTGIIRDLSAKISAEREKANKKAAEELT

B1: DotM (natural protein)
chain: MYIEMAQQQQQSGSDNSMAPVWIVILLFITAYFVWALAHQYIVSFVFTINIWQARLVNLFLNNQLLANQIYLMQTLDPNTVNWDQMVTVMRAVGDYMRYPVICILVVLAFVLYNSNVTLKYRKTYDMKSLRAQEQFNWPAIMPIVKEDLVSQDVNKGPWAMALTPMEFARKYNLLRKDDALLDNPVPGEEMTAGIRRGDAKRVFTMQLGPYWDGFERCSPQAYALSAVFMARMNRDRDAANNILKVLDKTFVDGKPDFSVARPVMKKYQNSELVQEVVAKHAYVLTVIASLLEAAREDGVVPSSEFLWLKPVDRRLWYMLNCVGRQTPYSEVAGPFAHWKAEKEMGRRSLVPMIDEAIRALEIAVKEVRLTPRQMEELEP
B2: DotN (natural protein)
chain: MNVNQTMADNQQRCELKLIASPGSWRLYSARKIDERFKSYEQKIFQRDRYTCQFCGFQARLYQDIVNLDGDYTNNRLSNLVTACCFCAQCFFVESVGVGGYGGGTLIYLPELTQAELNSLCHVLFCAITNDTGYKSSAQNIYRSFKFRSQIVEEKFGEGTSDPAIFGQLMIDSGVNSEEIREKLFKNIRLLPSRAKFRKQIEKWAASALEEIAD
B3: DotY (natural protein)
chain: MPKYTLPTRDALLKAMQVGETSIEAAEYMATRFEQILTKAKLLPECNDMLEKIKEYAQFVKFKLLSSAQVWSGQERPTSDYQNTQENKAEFLASHLEGLPSGLKLEVAIGDDAKILRGFSSNGKMVEGDQLKTMDGLLEGWLAKNSLAISGGAVVKIDNTGNQTKVDPQEIRQLINDSEKGVAKYFADKGVGMEVAQRTYQEPKALETKREEIRQEIESGAEAPTTQSIR
notes: also called lpg0294
B4: DotZ (natural protein)
chain: MDEIKKDDELSQWLSTYGTITAERILGRYNISLPQDEILEAINIPSSFYRHLLQIPLKNVLNGIVIQQASDYHVYAQKLLIDYLLSGESSKEPDSQGAGTRESLEDERQRLVQLGDEFHKLELEQDNLIASSQASLMKISIDWNTKLETTLSKLNSLYKNTNSKIKKNAIRKALIKAFIHCDLVKDQSQKNKYQLIDKLNQTLAVSVGAELKESILTNLSELFQILEALNTKLDEFTDRTNHLSQQAKSFRTQFYEVILRIIELIKLLPEYKIDPAQDAINREPLYFDRTIGER
notes: also called lpg1549

Tests used:
[1] = target: T1, DotL with a Strep-tag at the C-terminus; experiment: affinity purification with mass spectrometry; settings: partners not purified
[2] = target: T1, DotL with a Strep-tag at the C-terminus; experiment: cryo-EM structure; settings: both partners purified
DotZ = target: B4; experiment: cryo-EM structure; settings: both partners purified
DotM = target: B1; experiment: cryo-EM structure; settings: both partners purified

B1
binding result [1]: binds

B2
binding result [2]: binds | binding result (DotZ): binds

B3
binding result (DotZ): binds

B4
binding result (DotM): binds
